How the values were obtained:
LptG^E88A = target: T1, LptG^E88A (E. coli, UniProt P0ADC6 1-360, E88A); experiment: cell-based or functional assay
T1 sequence (looked up): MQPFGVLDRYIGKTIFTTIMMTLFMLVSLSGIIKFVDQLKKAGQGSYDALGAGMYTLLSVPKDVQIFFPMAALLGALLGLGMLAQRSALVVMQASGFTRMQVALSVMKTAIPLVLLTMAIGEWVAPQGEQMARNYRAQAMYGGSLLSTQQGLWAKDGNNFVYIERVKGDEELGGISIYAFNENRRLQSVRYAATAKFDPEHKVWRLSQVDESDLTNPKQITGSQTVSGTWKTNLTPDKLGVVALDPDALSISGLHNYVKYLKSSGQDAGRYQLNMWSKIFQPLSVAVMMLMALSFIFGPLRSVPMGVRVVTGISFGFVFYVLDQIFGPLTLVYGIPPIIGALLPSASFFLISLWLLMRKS

LptF^E84A = target: T2, LptF^E84A (E. coli, UniProt P0AF98 1-366, E84A); experiment: cell-based or functional assay
T2 sequence (looked up): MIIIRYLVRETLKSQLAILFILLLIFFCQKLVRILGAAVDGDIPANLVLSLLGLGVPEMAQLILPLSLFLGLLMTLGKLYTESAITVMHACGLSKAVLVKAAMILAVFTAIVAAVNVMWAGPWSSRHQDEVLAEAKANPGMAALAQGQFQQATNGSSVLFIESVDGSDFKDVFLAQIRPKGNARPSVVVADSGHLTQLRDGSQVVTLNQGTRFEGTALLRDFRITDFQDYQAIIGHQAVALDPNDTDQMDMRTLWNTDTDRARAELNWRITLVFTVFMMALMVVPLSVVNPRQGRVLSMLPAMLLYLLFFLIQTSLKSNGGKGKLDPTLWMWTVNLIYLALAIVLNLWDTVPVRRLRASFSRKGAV

B1: LptB^WT (enzyme, E. coli, UniProt P0A9V1 1-241, looked up)
chain: MATLTAKNLAKAYKGRRVVEDVSLTVNSGEIVGLLGPNGAGKTTTFYMVVGIVPRDAGNIIIDDDDISLLPLHARARRGIGYLPQEASIFRRLSVYDNLMAVLQIRDDLSAEQREDRANELMEEFHIEHLRDSMGQSLSGGERRRVEIARALAANPKFILLDEPFAGVDPISVIDIKRIIEHLRDSGLGVLITDHNVRETLAVCERAYIVSQGHLIAHGTPTEILQDEHVKRVYLGEDFRL
ATPase activity of purified LptB2FG-LptC-His7 complexes relative to the WT complex (LptG^E88A): ~0.15 % of the ATPase activity of WT complexes | ATPase activity of purified LptB2FG-LptC-His7 complexes relative to the WT complex (LptF^E84A): ~0.15 % of the ATPase activity of WT complexes
